These results are taken from the RNAGym collection of RNA variant scans (doi:10.1073/pnas.2313332121).

B1: TPR 5TU (parent)
chain: GGAUCUUCUCGAUCUAACAAAAAAGACAAAUCUGCCACAAAGCUUGAGAGCAUCUUCGGAUGCAGAGGCGGCAGCCUUCGGUGGCGCGAUAGCGCCAACGUUCUCAACUAUGACACGCAAAACGCGUGCUCCGUUGAAUGGAGUUUAUCAUG

Variants at the floor of the assay were thinned out.

Variants of B1 are the subject of the series. Nature of the series: polymerase ribozyme fitness, log enrichment relative to wild type (log ratio); higher = more active; in vitro selection for triplet polymerase activity. Summed up:
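PCR was used to build mutant libraries for each subunit of a heterodimeric triplet polymerase ribozyme, which were then transcribed. A single in vitro selection round, in triplicate, used a frozen incubation at −7 °C and recovered extended constructs by gel excision, streptavidin beads and RT-PCR. Fitness is the logarithm of genotype enrichment relative to wild-type enrichment, averaged over replicates with inverse-variance weights. The logarithm is base 2, and after Illumina sequencing only genotypes with ≥10 input reads and ≥1 read per output were kept.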
As for A39G A97U, the “polymerase ribozyme fitness (log ratio)” value was -2.96.

In the case of C38U G92U C95G A106U, the “polymerase ribozyme fitness (log ratio)” value is ≤ -4.2.

Take C38U C51U U56A G94U C105A A121U: the “polymerase ribozyme fitness (log ratio)” value was -4.15.

On to A39C G133C U146A, for which the “polymerase ribozyme fitness (log ratio)” value is -3.57.

As for A39G C87U A147C C149A, the “polymerase ribozyme fitness (log ratio)” value is ≤ -4.2.

C38U C116G U148A: the “polymerase ribozyme fitness (log ratio)” value was -3.89.

Turning to C38U U61C U145A, the “polymerase ribozyme fitness (log ratio)” value was -2.49.

Consider C38U U55C A64U G94A C103A C125U, for which the “polymerase ribozyme fitness (log ratio)” value was ≤ -4.2.

As to A39G G80C C93U C118U, the “polymerase ribozyme fitness (log ratio)” value is -3.96.

Regarding A39C G88C A97G C114G, the “polymerase ribozyme fitness (log ratio)” value is ≤ -4.2.

As to A39U C54U U55G C93U C103U, the “polymerase ribozyme fitness (log ratio)” value is ≤ -4.2.

For C38G G141A, the “polymerase ribozyme fitness (log ratio)” value is -0.0444.

As for C38U C93U A121G G124A U135G, the “polymerase ribozyme fitness (log ratio)” value was ≤ -4.2.

A39C G59U C76G U146G: the “polymerase ribozyme fitness (log ratio)” value is ≤ -4.2.

Turning to C38U U55G C85A, the “polymerase ribozyme fitness (log ratio)” value is -2.3.

Regarding A39G G59C G71A U101C A115G G140U, the “polymerase ribozyme fitness (log ratio)” value was ≤ -4.2.

With C38U A52G C93G G117U, the “polymerase ribozyme fitness (log ratio)” value was -3.91.

Consider C38G G92A C105G, for which the “polymerase ribozyme fitness (log ratio)” value was ≤ -4.2.

A39C G59A C87A U139G: the “polymerase ribozyme fitness (log ratio)” value was ≤ -4.2.

Regarding C38G A73U C95A U146G, the “polymerase ribozyme fitness (log ratio)” value was -2.85.

Take C38U U61G G92U C116G G140A U144C: the “polymerase ribozyme fitness (log ratio)” value was ≤ -4.2.

Regarding C38U C57A G143C, the “polymerase ribozyme fitness (log ratio)” value is -2.41.

Turning to C38U C87U A115U C125U, the “polymerase ribozyme fitness (log ratio)” value is -3.34.

On to A39U A89G G126U, for which the “polymerase ribozyme fitness (log ratio)” value is -3.58.

For A39U A60G A137U, the “polymerase ribozyme fitness (log ratio)” value was -4.19.

With A39G U101C, the “polymerase ribozyme fitness (log ratio)” value was -1.89.

For the variant A39G G83A G141C, the “polymerase ribozyme fitness (log ratio)” value was -3.09.

For C38U G48C G92A A142C G143U, the “polymerase ribozyme fitness (log ratio)” value was ≤ -4.2.

On to C38A U55A U135A U146C, for which the “polymerase ribozyme fitness (log ratio)” value is -1.06.

As to C38U A39C A60U, the “polymerase ribozyme fitness (log ratio)” value is -3.28.

For the variant A39G G83A U101A, the “polymerase ribozyme fitness (log ratio)” value is ≤ -4.2.

A39C C87U U101G G117U: the “polymerase ribozyme fitness (log ratio)” value was -3.2.

Turning to C38U A89G, the “polymerase ribozyme fitness (log ratio)” value was -1.07.

With A39C A89C A119U A120G U130A, the “polymerase ribozyme fitness (log ratio)” value is ≤ -4.2.

For the variant C38U C125A, the “polymerase ribozyme fitness (log ratio)” value was -0.6.

For the variant C38G U56A G86U U130A, the “polymerase ribozyme fitness (log ratio)” value was ≤ -4.2.

Regarding C38G G42C U61G G86U, the “polymerase ribozyme fitness (log ratio)” value is ≤ -4.2.

For the variant A39C U56G A73G, the “polymerase ribozyme fitness (log ratio)” value is -3.36.

Take A39U A64G G86A A89G U135A: the “polymerase ribozyme fitness (log ratio)” value is ≤ -4.2.

On to C38U G86A, for which the “polymerase ribozyme fitness (log ratio)” value is -1.16.

With C38U G86U, the “polymerase ribozyme fitness (log ratio)” value was -1.57.

Regarding C38G C43U C87A C132G U135G G136C U146A, the “polymerase ribozyme fitness (log ratio)” value is ≤ -4.2.

As for C38U C87G, the “polymerase ribozyme fitness (log ratio)” value was -3.75.

As to C38U C87U, the “polymerase ribozyme fitness (log ratio)” value is -1.19.

Regarding A39C G88U A97G A122G, the “polymerase ribozyme fitness (log ratio)” value was ≤ -4.2.

For C38U G86A U148C, the “polymerase ribozyme fitness (log ratio)” value is -3.22.

For A39C A52G G70A C99G G100A U144A, the “polymerase ribozyme fitness (log ratio)” value is ≤ -4.2.

Take C38U U44A G70C U134G: the “polymerase ribozyme fitness (log ratio)” value was ≤ -4.2.

On to C38U A66G U82A C96U C125A U145A, for which the “polymerase ribozyme fitness (log ratio)” value is ≤ -4.2.

With C38A U145C, the “polymerase ribozyme fitness (log ratio)” value was -0.328.

On to C38U G81C U111G A138G, for which the “polymerase ribozyme fitness (log ratio)” value was ≤ -4.2.

In the case of A39C G58A G59C, the “polymerase ribozyme fitness (log ratio)” value was -1.49.

Consider C38U C69G C95U A122C, for which the “polymerase ribozyme fitness (log ratio)” value is -2.43.

As for A39C A41C A115G G124A, the “polymerase ribozyme fitness (log ratio)” value is -3.47.

For the variant A39U A73U, the “polymerase ribozyme fitness (log ratio)” value was -4.11.

Consider C38A U56A, for which the “polymerase ribozyme fitness (log ratio)” value is -0.602.

Regarding C38U A106U U145C, the “polymerase ribozyme fitness (log ratio)” value was -1.24.

As to A39G C57G C105G A147U, the “polymerase ribozyme fitness (log ratio)” value was -3.4.

Turning to A39C A64C C93U, the “polymerase ribozyme fitness (log ratio)” value is ≤ -4.2.

Consider C38U G86A A137G A147U, for which the “polymerase ribozyme fitness (log ratio)” value is -2.49.

On to A39C C54A G65C C93A G124U A138C, for which the “polymerase ribozyme fitness (log ratio)” value is ≤ -4.2.

Take A39C G68A G80A C118U G128U: the “polymerase ribozyme fitness (log ratio)” value is ≤ -4.2.

Regarding C38U C51G U82C C96A A97U C125G, the “polymerase ribozyme fitness (log ratio)” value is -3.55.

As to A39C A41C G86U U139G, the “polymerase ribozyme fitness (log ratio)” value is ≤ -4.2.

With C38U A52C A60G A119G, the “polymerase ribozyme fitness (log ratio)” value was found to be 0.129.

As to A39U C54U C96A, the “polymerase ribozyme fitness (log ratio)” value was -2.72.

C38U C96G A142U U146A: the “polymerase ribozyme fitness (log ratio)” value is -1.67.

As for C38U A49C C85U G92U C103A U111C U144C, the “polymerase ribozyme fitness (log ratio)” value is ≤ -4.2.

With C38U A120U, the “polymerase ribozyme fitness (log ratio)” value is -0.54.

On to C38U A60C C85U C118U G136A, for which the “polymerase ribozyme fitness (log ratio)” value is -0.726.

Take A39C C118G: the “polymerase ribozyme fitness (log ratio)” value is -2.92.

For A39G G62A G94A A120U G143U, the “polymerase ribozyme fitness (log ratio)” value is ≤ -4.2.

As to C38U U90G C95A, the “polymerase ribozyme fitness (log ratio)” value was ≤ -4.2.

In the case of C38G G71A U82G A107U, the “polymerase ribozyme fitness (log ratio)” value is ≤ -4.2.

Regarding A39U A107G G140C, the “polymerase ribozyme fitness (log ratio)” value was ≤ -4.2.

With A39G A91G A137G, the “polymerase ribozyme fitness (log ratio)” value was ≤ -4.2.

Take A39G G141C: the “polymerase ribozyme fitness (log ratio)” value was -2.65.

Regarding C38U A107C, the “polymerase ribozyme fitness (log ratio)” value was -3.45.

For A39G G42A, the “polymerase ribozyme fitness (log ratio)” value was -3.64.

C38U C87U G94U: the “polymerase ribozyme fitness (log ratio)” value is -1.73.

As for C38U A110U, the “polymerase ribozyme fitness (log ratio)” value is -3.7.

Regarding A39G G80A G126U A138G, the “polymerase ribozyme fitness (log ratio)” value is ≤ -4.2.

C38U G92A U146A: the “polymerase ribozyme fitness (log ratio)” value was -2.92.

A39G G42C A47C A91U C93U U101G A119U C125U G133U G136A: the “polymerase ribozyme fitness (log ratio)” value is ≤ -4.2.
